Assay results as given in patent US8415393B2, “Anti-bacterial drug targeting of genome maintenance interfaces” (Wisconsin Alumni Research Foundation, priority 2007, dated 2013).
Where no end group is shown, it is not given here. fluorescein = fluorescein moiety attached to the N-terminus of the peptide (N-terminal fluorescein label)

What was measured:
E. coli Exonuclease I = target: T1, E. coli Exonuclease I (Escherichia coli, UniProt P04995 1-475); assay: fluorescence anisotropy equilibrium binding (Kd,app), ExoI titrated into fluorescein-labeled peptide
T1 construct: also called ExoI; Exol
T1 sequence: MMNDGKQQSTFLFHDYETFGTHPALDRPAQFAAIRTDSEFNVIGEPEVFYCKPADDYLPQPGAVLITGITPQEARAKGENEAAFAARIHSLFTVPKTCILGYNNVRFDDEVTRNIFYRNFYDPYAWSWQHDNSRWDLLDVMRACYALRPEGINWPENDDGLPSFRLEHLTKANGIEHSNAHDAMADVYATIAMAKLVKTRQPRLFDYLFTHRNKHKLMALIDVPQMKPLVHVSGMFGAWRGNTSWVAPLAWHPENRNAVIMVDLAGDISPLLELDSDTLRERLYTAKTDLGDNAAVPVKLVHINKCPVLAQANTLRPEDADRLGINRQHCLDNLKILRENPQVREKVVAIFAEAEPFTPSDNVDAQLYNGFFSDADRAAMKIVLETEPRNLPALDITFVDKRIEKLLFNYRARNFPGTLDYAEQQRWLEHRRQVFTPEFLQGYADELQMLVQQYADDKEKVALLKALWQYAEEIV

ExoI Tyr207Ala variant = target: T2, ExoI Tyr207Ala variant (Escherichia coli, UniProt P04995 1-475); assay: fluorescence anisotropy equilibrium binding (Kd,app), ExoI variant titrated into fluorescein-labeled peptide
T2 construct: also called Y207A; Tyr207 variant
T2 sequence: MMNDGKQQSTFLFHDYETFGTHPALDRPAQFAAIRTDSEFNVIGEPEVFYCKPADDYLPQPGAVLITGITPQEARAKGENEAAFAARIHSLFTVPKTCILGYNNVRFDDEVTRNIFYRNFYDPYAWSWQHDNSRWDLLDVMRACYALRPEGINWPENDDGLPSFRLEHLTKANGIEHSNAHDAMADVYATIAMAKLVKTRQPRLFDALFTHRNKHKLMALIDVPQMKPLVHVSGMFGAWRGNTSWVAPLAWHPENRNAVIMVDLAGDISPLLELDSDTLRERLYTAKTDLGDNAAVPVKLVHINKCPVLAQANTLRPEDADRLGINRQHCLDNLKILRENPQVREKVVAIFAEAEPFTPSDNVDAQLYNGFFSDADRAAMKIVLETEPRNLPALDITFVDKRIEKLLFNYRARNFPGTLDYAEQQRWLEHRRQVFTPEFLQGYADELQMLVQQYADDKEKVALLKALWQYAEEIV

ExoI Gln311Ala variant = target: T3, ExoI Gln311Ala variant (Escherichia coli, UniProt P04995 1-475); assay: as above
T3 construct: also called Q311A; Gln311 variant
T3 sequence: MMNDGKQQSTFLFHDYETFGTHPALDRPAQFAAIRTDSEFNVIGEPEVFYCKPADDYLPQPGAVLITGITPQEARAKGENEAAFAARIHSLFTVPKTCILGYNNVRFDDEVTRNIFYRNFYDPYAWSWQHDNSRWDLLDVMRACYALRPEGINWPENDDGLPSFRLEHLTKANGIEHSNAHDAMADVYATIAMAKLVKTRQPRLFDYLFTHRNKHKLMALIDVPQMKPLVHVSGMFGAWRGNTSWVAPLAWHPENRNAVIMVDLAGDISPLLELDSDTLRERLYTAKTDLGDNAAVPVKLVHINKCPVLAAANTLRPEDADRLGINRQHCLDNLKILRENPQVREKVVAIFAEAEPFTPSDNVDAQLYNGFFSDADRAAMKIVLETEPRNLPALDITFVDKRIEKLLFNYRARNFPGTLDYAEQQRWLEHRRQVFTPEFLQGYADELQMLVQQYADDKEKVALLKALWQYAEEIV

ExoI Arg316Ala variant = target: T4, ExoI Arg316Ala variant (Escherichia coli, UniProt P04995 1-475); assay: as above
T4 construct: residue flanks peptide A; also called R316A; Arg316 variant
T4 sequence: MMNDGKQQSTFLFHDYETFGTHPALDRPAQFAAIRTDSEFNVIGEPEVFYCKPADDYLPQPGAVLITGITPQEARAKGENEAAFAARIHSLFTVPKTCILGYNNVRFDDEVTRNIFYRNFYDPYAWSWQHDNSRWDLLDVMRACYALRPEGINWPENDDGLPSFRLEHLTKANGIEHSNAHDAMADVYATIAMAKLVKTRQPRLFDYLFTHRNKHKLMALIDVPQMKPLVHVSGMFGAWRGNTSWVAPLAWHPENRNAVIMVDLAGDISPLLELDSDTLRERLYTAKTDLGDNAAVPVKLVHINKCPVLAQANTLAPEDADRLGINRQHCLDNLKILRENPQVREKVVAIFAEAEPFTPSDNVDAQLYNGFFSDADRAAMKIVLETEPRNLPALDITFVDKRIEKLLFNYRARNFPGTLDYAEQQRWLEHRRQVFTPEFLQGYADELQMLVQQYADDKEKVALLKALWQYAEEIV

ExoI Arg327Ala variant = target: T5, ExoI Arg327Ala variant (Escherichia coli, UniProt P04995 1-475); assay: as above
T5 construct: also called R327A
T5 sequence: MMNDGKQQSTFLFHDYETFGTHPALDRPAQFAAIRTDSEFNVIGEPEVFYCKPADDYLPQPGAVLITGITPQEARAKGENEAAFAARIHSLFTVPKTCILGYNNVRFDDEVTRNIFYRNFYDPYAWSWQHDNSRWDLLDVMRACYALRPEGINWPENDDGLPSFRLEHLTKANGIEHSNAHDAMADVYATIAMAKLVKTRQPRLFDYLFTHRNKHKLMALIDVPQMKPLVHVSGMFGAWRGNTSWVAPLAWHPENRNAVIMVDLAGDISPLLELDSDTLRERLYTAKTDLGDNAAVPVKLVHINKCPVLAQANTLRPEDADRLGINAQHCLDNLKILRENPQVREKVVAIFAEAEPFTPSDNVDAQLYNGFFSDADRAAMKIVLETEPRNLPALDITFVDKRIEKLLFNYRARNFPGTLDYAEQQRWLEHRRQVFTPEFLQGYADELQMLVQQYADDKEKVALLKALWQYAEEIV

In the case of fluorescein-WMDFDDDIPF (also called F-SSB-Ct; F-WT) [fluorescein-labeled SSB C-terminal peptide (fluorescein-WMDFDDDIPF)], the Kd (E. coli Exonuclease I) is reported as 136 nM, the Kd (ExoI Tyr207Ala variant) is reported as over 1000 nM and the Kd (ExoI Gln311Ala variant) is reported as 304 nM. It also gave a Kd (ExoI Arg316Ala variant) of over 1000 nM and a Kd (ExoI Arg327Ala variant) of 270 nM.
